Where a chain is given by its changes, count along the chain named.
Experiments:
V5-eEF1A F98C = molecular target: T1, V5-eEF1A F98C (yeast (S. cerevisiae), UniProt P02994 1-458, F98C); experiment: co-IP; co-IP of V5-eEF1A variants with Chp1 from yeast lysate (GFP-Trap/V5-Trap; 20 mM Tris pH 7.4, 150 mM NaCl, 2 mM MgCl2, 2 mM EDTA, 5% glycerol, 0.25% NP-40), 2 h at 4 °C, immunoblot, quantified; conditions: partners not purified
T1 construct: eEF1A (Tef2), yeast, with a change that represents a human EEF1A2 polymorphism; source: expressed in yeast cells, in lysate; not shown: V5, N-terminal, kept
T1 sequence (looked up): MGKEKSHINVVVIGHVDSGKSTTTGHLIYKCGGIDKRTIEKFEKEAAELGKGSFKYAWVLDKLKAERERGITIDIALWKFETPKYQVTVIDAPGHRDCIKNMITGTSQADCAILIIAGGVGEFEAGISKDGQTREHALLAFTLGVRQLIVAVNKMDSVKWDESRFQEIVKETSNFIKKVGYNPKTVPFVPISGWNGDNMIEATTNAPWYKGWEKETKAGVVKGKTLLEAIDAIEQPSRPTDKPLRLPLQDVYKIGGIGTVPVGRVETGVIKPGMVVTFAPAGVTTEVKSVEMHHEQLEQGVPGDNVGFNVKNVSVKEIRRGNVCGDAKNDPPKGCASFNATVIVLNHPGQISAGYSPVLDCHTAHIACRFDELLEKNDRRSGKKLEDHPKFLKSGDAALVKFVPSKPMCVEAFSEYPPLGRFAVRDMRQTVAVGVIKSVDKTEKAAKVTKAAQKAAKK

V5-eEF1A M102V = molecular target: T2, V5-eEF1A M102V (yeast (S. cerevisiae), UniProt P02994 1-458, M102V); experiment: as above; conditions: partners not purified
T2 construct: eEF1A (Tef2), yeast, with a change that represents a human EEF1A2 polymorphism; source: expressed in yeast cells, in lysate; not shown: V5, N-terminal, kept
T2 sequence (looked up): T1 sequence (looked up) with C98F, M102V

B1: Chp1 (in yeast cells expressing V5-eEF1A) (natural protein, yeast (S. cerevisiae), UniProt Q08971 1-146, looked up)
chain: MSTFNAETADNLEDIEKQFAVVAVEQAETYWKLLTSVPGSKLRLTKFDDEIYENFMERFPEYKDVERVKKFTEEELKTKEAKERWRKFFTIFEKKIEDYNFGTLLRTDASAEYGQFTTCFVVRLQFYAFEIARNKHGLNDWIVGQK
notes: Chp1 (ORF YPL225w), yeast; source: yeast cells, in lysate
V5-eEF1A F98C
  fold increase in Chp1 binding (against WT eEF1A): 3 fold
V5-eEF1A M102V
  fold increase in Chp1 binding (against WT eEF1A): 3 fold

— article PMC10869706, “Chp1 is a dedicated chaperone at the ribosome that safeguards eEF1A biogenesis” (Nature Communications, 2024)
